Data set [1] is described as follows: in vitro fucosylation of DELLA1–205, AAL lectin blot. To be noted: glycan lost; control: wild type SPY.
Data set [2] concerns the molecule itself. As to the kind of experiment: SEC; Superdex 200 Increase 10/300 GL, 0.5 mL injected; 50 mM Tris pH 7.9, 300 mM NaCl, 0.5 mM TCEP, 2 mM benzamidine; samples incubated at 4 °C for 6 h; peak fractions on SDS-PAGE.
Data set [3] concerns the molecule itself. The data set is described as follows: SEC-MALS; ~500 μg loaded on Superdex 200 increase 10/300 connected to a HELEOS multi-angle light scattering instrument; 20 mM Tris pH 7.9, 300 mM NaCl, 0.5 mM TCEP. (Size exclusion chromatography separates by hydrodynamic size, large species first.)
A further data set can be described thus: gel filtration. To be noted: glycan gained; control: wild type unmodified SPY.

Numbering of substitutions follows the chain as printed. Names may count otherwise.

By stoichiometry N is commonly meant the number of molecules, sites or subunits per partner or assembly.

B1: SPINDLY (SPY): S21A (protein)
parent chain: MVGLEDDTERERSPVVENGFSNGSRSSSSSAGVLSPSRKVTQGNDTLSYANILRARNKFADALALYEAMLEKDSKNVEAHIGKGICLQTQNKGNLAFDCFSEAIRLDPHNACALTHCGILHKEEGRLVEAAESYQKALMADASYKPAAECLAIVLTDLGTSLKLAGNTQEGIQKYYEALKIDPHYAPAYYNLGVVYSEMMQYDNALSCYEKAALERPMYAEAYCNMGVIYKNRGDLEMAITCYERCLAVSPNFEIAKNNMAIALTDLGTKVKLEGDVTQGVAYYKKALYYNWHYADAMYNLGVAYGEMLKFDMAIVFYELAFHFNPHCAEACNNLGVLYKDRDNLDKAVECYQMALSIKPNFAQSLNNLGVVYTVQGKMDAAASMIEKAILANPTYAEAFNNLGVLYRDAGNITMAIDAYEECLKIDPDSRNAGQNRLLAMNYINEGLDDKLFEAHRDWGWRFTRLHPQYTSWDNLKDPERPITIGYISPDFFTHSVSYFIEAPLTHHDYTKYKVVVYSAVVKADAKTYRFRDKVLKKGGVWKDIYGIDEKKIASMVREDKIDILVELTGHTANNKLGTMACRPAPVQVTWIGYPNTTGLPTVDYRITDSLADPPDTKQKQVEELVRLPDCFLCYTPSPEAGPVCPTPALSNGFVTFGSFNNLAKITPKVLQVWARILCAVPNSRLVVKCKPFCCDSIRQRFLTTLEQLGLESKRVDLLPLILFNHDHMQAYSLMDISLDTFPYAGTTTTCESLYMGVPCVTMAGSVHAHNVGVSLLTKVGLGHLVAKNEDEYVQLSVDLASDVTALSKLRMSLRDLMAGSPVCNGPSFAVGLESAYRNMWKKYCKGEVPSLRRMEMLQKEVHDDPLISKDLGPSRVSVTGEATPSLKANGSAPVPSSLPTQSPQLSKRMDSTS
With B1, the enzymatic_activity entry in data set [1] is on record as “no change”.

B2: self-fucosylated SPY (enzyme, Arabidopsis thaliana, UniProt Q96301 1-914, looked up)
chain: B1 parent chain
modifications: O-fucose by self-fucosylation (major sites S21 and S24 by the paper's mutagenesis)
notes: SPINDLY (SPY), Arabidopsis thaliana, At3g11540, self-fucosylated sample run on gel filtration; Fucosylation of the sample was checked by western blotting with biotinylated AAL; also called SPY with fucosylation modification; source: E. coli BL21 (DE3), purified; self-fucosylated sample; not shown: His6, N-terminal, cleaved; SUMO, N-terminal, cleaved
On to B2, for which, in data set [2], the “stoichiometry N” value came out at 2.

B3: Arabidopsis SPINDLY (SPY), wild type, full-length (enzyme, Arabidopsis thaliana, UniProt Q96301 1-914, looked up)
chain: B1 parent chain
notes: Dimer in solution by SEC-MALS; also called wild type SPY; SPY^WT; not shown: His6, N-terminal, cleaved; SUMO, N-terminal, cleaved
For B3, in data set [3], the “stoichiometry N” value turned out to be 2.

B4: SPINDLY (SPY): self-fucosylated SPY (protein)
parent chain: B1 parent chain
Regarding B4, the oligomerisation entry in the data set “gel filtration” is listed as “no change”.

B5: SPINDLY (SPY): S24A (protein)
parent chain: B1 parent chain
Take B5: the enzymatic_activity entry in data set [1] was “no change”.

B6: engineered Arabidopsis SPY^C645S (enzyme, Arabidopsis thaliana, UniProt Q96301 1-914, looked up)
chain: B1 parent chain with C645S
notes: SPINDLY (SPY), Arabidopsis thaliana, At3g11540, full-length with C645S; Crystallised with GDP; residues 848-914 and most of 1-43 are invisible in the structure; also called SPY (in the SPY/GDP complex structure); catalytic SPY; not shown: His6, N-terminal, cleaved; SUMO, N-terminal, cleaved
Turning to B6, in data set [3], the “stoichiometry N” value was found to be 2.
